Experimental data as given in article PMC7234994, “Structural insights into the inhibition mechanism of human sterol O-acyltransferase 1 by a competitive inhibitor” (Nature Communications, 2020).

Assays:
[1] = target: the molecule itself; test: SEC; fluorescence-detection SEC (FSEC) of N-terminal GFP-tagged hSOAT1 solubilized in detergent micelles; elution compared with dimeric mouse TPC1 (189 kDa)
[2] = target: the molecule itself; test: cryo-EM structure; hSOAT1 full length in detergent micelles with CI-976; one 3D class refined to 12 Å
[3] = target: the molecule itself; test: cryo-EM structure; hSOAT1 66-550 in nanodisc (MSP2X) with inhibitor CI-976; 3.5 Å, C2 symmetry

Row | Protein | stoichiometry N [1] | also measured
1 | N-terminal GFP-tagged full-length human SOAT1 (1-550) (enzyme, UniProt P35610 1-550, looked up, human sterol O-acyltransferase 1 (SOAT1), full-length, residues 1-550; BacMam vector with N-terminal His7-strep-GFP tags; detected by GFP fluorescence in FSEC; also called hSOAT1; sterol O-acyltransferase 1; source: solubilized in detergent micelles; not shown: GFP, N-terminal, kept) MVGEEKMSLRNRLSKSRENPEEDEDQRNPAKESLETPSNGRIDIKQLIAKKIKLTAEAEELKPFFMKEVGSHFDDFVTNLIEKSASLDNGGCALTTFSVLEGEKNNHRAKDLRAPPEQGKIFIARRSLLDELLEVDHIRTIYHMFIALLILFILSTLVVDYIDEGRLVLEFSLLSYAFGKFPTVVWTWWIMFLSTFSVPYFLFQHWATGYSKSSHPLIRSLFHGFLFMIFQIGVLGFGPTYVVLAYTLPPASRFIIIFEQIRFVMKAHSFVRENVPRVLNSAKEKSSTVPIPTVNQYLYFLFAPTLIYRDSYPRNPTVRWGYVAMKFAQVFGCFFYVYYIFERLCAPLFRNIKQEPFSARVLVLCVFNSILPGVLILFLTFFAFLHCWLNAFAEMLRFGDRMFYKDWWNSTSYSNYYRTWNVVVHDWLYYYAYKDFLWFFSKRFKSAAMLAVFAVSAVVHEYALAVCLSFFYPVLFVLFMFFGMAFNFIVNDSRKKPIWNVLMWTSLFLGNGVLLCFYSQEWYARQHCPLKNPTFLDYVRPRSWTCRYVF | 4 | –
2 | human SOAT1 full-length (1-550), purified, tags removed (enzyme, UniProt P35610 1-550, looked up, human sterol O-acyltransferase 1 (SOAT1), full-length, residues 1-550; Studied in digitonin/GDN micelles and in MSP2N2 nanodiscs with soybean polar lipids; also called hSOAT1; hSOAT1 tetramer; source: HEK293F, BacMam infected, purified (strep-tactin, PreScission, superose-6); not shown: His7, N-terminal, cleaved; strep, N-terminal, cleaved; GFP, N-terminal, cleaved) MVGEEKMSLRNRLSKSRENPEEDEDQRNPAKESLETPSNGRIDIKQLIAKKIKLTAEAEELKPFFMKEVGSHFDDFVTNLIEKSASLDNGGCALTTFSVLEGEKNNHRAKDLRAPPEQGKIFIARRSLLDELLEVDHIRTIYHMFIALLILFILSTLVVDYIDEGRLVLEFSLLSYAFGKFPTVVWTWWIMFLSTFSVPYFLFQHWATGYSKSSHPLIRSLFHGFLFMIFQIGVLGFGPTYVVLAYTLPPASRFIIIFEQIRFVMKAHSFVRENVPRVLNSAKEKSSTVPIPTVNQYLYFLFAPTLIYRDSYPRNPTVRWGYVAMKFAQVFGCFFYVYYIFERLCAPLFRNIKQEPFSARVLVLCVFNSILPGVLILFLTFFAFLHCWLNAFAEMLRFGDRMFYKDWWNSTSYSNYYRTWNVVVHDWLYYYAYKDFLWFFSKRFKSAAMLAVFAVSAVVHEYALAVCLSFFYPVLFVLFMFFGMAFNFIVNDSRKKPIWNVLMWTSLFLGNGVLLCFYSQEWYARQHCPLKNPTFLDYVRPRSWTCRYVF | – | stoichiometry N [2]: 4
3 | N-terminal GFP-tagged N-terminal truncated human SOAT1 (66-550) (domain or fragment, UniProt P35610 66-550, looked up, human sterol O-acyltransferase 1 (SOAT1), residues 66-550 (N-terminal tetramerization domain deleted); also called hSOAT1 dimer; SOAT1-dimer (66-550); source: HEK293F, transfected, solubilized with 1% GDN (supernatant, not purified); not shown: GFP, N-terminal, kept) MKEVGSHFDDFVTNLIEKSASLDNGGCALTTFSVLEGEKNNHRAKDLRAPPEQGKIFIARRSLLDELLEVDHIRTIYHMFIALLILFILSTLVVDYIDEGRLVLEFSLLSYAFGKFPTVVWTWWIMFLSTFSVPYFLFQHWATGYSKSSHPLIRSLFHGFLFMIFQIGVLGFGPTYVVLAYTLPPASRFIIIFEQIRFVMKAHSFVRENVPRVLNSAKEKSSTVPIPTVNQYLYFLFAPTLIYRDSYPRNPTVRWGYVAMKFAQVFGCFFYVYYIFERLCAPLFRNIKQEPFSARVLVLCVFNSILPGVLILFLTFFAFLHCWLNAFAEMLRFGDRMFYKDWWNSTSYSNYYRTWNVVVHDWLYYYAYKDFLWFFSKRFKSAAMLAVFAVSAVVHEYALAVCLSFFYPVLFVLFMFFGMAFNFIVNDSRKKPIWNVLMWTSLFLGNGVLLCFYSQEWYARQHCPLKNPTFLDYVRPRSWTCRYVF | 2 | –
4 | human SOAT1 dimer construct (66-550), purified, tags removed (domain or fragment, UniProt P35610 66-550, looked up, human sterol O-acyltransferase 1 (SOAT1), residues 66-550; residues 66-117 invisible in the map; Reconstituted into MSP2X nanodiscs; also called hSOAT1 dimer; hSOAT1 66-550; source: HEK293F, BacMam infected, purified (strep-tactin, PreScission, superose-6); not shown: His7, N-terminal, cleaved; strep, N-terminal, cleaved; GFP, N-terminal, cleaved) MKEVGSHFDDFVTNLIEKSASLDNGGCALTTFSVLEGEKNNHRAKDLRAPPEQGKIFIARRSLLDELLEVDHIRTIYHMFIALLILFILSTLVVDYIDEGRLVLEFSLLSYAFGKFPTVVWTWWIMFLSTFSVPYFLFQHWATGYSKSSHPLIRSLFHGFLFMIFQIGVLGFGPTYVVLAYTLPPASRFIIIFEQIRFVMKAHSFVRENVPRVLNSAKEKSSTVPIPTVNQYLYFLFAPTLIYRDSYPRNPTVRWGYVAMKFAQVFGCFFYVYYIFERLCAPLFRNIKQEPFSARVLVLCVFNSILPGVLILFLTFFAFLHCWLNAFAEMLRFGDRMFYKDWWNSTSYSNYYRTWNVVVHDWLYYYAYKDFLWFFSKRFKSAAMLAVFAVSAVVHEYALAVCLSFFYPVLFVLFMFFGMAFNFIVNDSRKKPIWNVLMWTSLFLGNGVLLCFYSQEWYARQHCPLKNPTFLDYVRPRSWTCRYVF | – | stoichiometry N [3]: 2
